Data taken from the supplement of paper PMC6757056.
± gives the standard deviation of the averaged measurements.

B1: library; a variant is named by its letters at N, in order (parent)
chain: GCUGUCACCGGAAUACCAGCAUCGUCUUGAUGCCCUUGGAAGUCCGGUCUGAUGAGUCCNNNNNGGACGAAACAGC

Tests used:
theophylline [1] = variants of: B1; assay: FACS-Seq fitted mean relative fluorescence mCherry/BFP without ligand (log10 relative fluorescence); higher = higher reporter protein expression; details: HEK293T, ligand present: no
Procedure: (§1)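 Hammerhead (sTRSV) ribozyme switch libraries with a ligand aptamer grafted on stem I and a randomized N4-6 loop II, cloned into the 3' UTR of mCherry and transiently transfected into HEK293T cells; RNA-Seq 72 h post transfection with ligand added 1 h before transfection; RNA read count / plasmid DNA read count normalized to the non-cleaving sTRSVctl (x100), log10; sequences with >100 DNA reads. FACS-Seq: lentiviral library sorted into 6 bins after 48 h ligand, log-normal fit mean of mCherry/BFP scaled to controls. Printed sequences are partial switch sequences.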

theophylline [2] = variants of: B1; assay: normalized RNA/DNA level with ligand (relative to sTRSVctl = 100) (log10 (% of sTRSVctl)); higher = less ribozyme self-cleavage, higher mRNA level; details: ligand concentration (+) RNA-Seq: 5 mM, HEK293T, reporter: mCherry (pCS4076), ligand present: yes
Procedure: as §1

theophylline [3] = variants of: B1; assay: normalized RNA/DNA level without ligand (relative to sTRSVctl = 100) (log10 (% of sTRSVctl)); higher = less ribozyme self-cleavage, higher mRNA level; details: HEK293T, reporter: mCherry (pCS4076), ligand present: no
Procedure: as §1

theophylline [4] = variants of: B1; assay: FACS-Seq fitted mean relative fluorescence mCherry/BFP with ligand (log10 relative fluorescence); ligand concentration (+) FACS-Seq: 1 mM; higher = higher reporter protein expression; details: HEK293T, ligand present: yes
Procedure: as §1

Variant | FACS-Seq fitted mean (log10) (theophylline [1]) | normalized RNA/DNA level with ligand (log10) (theophylline [2]) | normalized RNA/DNA level without ligand (log10) (theophylline [3]) | FACS-Seq fitted mean (log10) (theophylline [4])
AAUCA | 0.1911 ± 0.00077 | 1.9026 ± 0.0018 | 1.7 ± 0.029 | 0.221 ± 0.08
AAUCU | 0.634 ± 0.065 | 1.94 ± 0.026 | 1.87 ± 0.026 | 0.57 ± 0.049
UAUGG | 0.926 ± 0.12 | 1.965 ± 0.014 | 1.86 ± 0.12 | 0.992 ± 0.017
UAUGA | 0.56 ± 0.0061 | 1.92 ± 0.051 | 1.57 ± 0.064 | 0.686 ± 0.033
UAUGU | 0.685 ± 0.011 | 2.111 ± 0.021 | 1.97 ± 0.035 | 0.621 ± 0.026
UAUGC | 0.174 ± 0.099 | 2.02 ± 0.087 | 2 ± 0.11 | 0.278 ± 0.059
AAUAG | 0.929 ± 0.015 | 1.965 ± 0.015 | 1.85 ± 0.039 | 0.894 ± 0.16
AAUAU | -0.0622 ± 0.051 | 1.99 ± 0.083 | 1.75 ± 0.024 | 0.253 ± 0.077
CCAUU | 0.558 ± 0.021 | 1.983 ± 0.0031 | 1.75 ± 0.049 | 0.688 ± 0.011
CCAUA | 0.864 ± 0.14 | 1.95 ± 0.036 | 1.5 ± 0.14 | 1.06 ± 0.12
UCACC | -0.0671 ± 0.15 | 1.92 ± 0.022 | 1.93 ± 0.053 | 0.0211 ± 0.046
UCACA | 0.565 ± 0.12 | 2 ± 0.027 | 1.48 ± 0.097 | 0.896 ± 0.07
UCACU | 0.354 ± 0.029 | 2.003 ± 0.0094 | 1.85 ± 0.092 | 0.438 ± 0.015
GCAUG | 0.8295 ± 0.0081 | 1.939 ± 0.013 | 1.79 ± 0.026 | 0.966 ± 0.067
GCAUU | 0.42 ± 0.1 | 1.938 ± 0.0078 | 1.792 ± 0.0054 | 0.4217 ± 0.00082
CAUAU | 0.397 ± 0.059 | 2.02 ± 0.043 | 1.76 ± 0.21 | 0.362 ± 0.069
ACCGC | 1.12 ± 0.047 | 2.06 ± 0.056 | 1.99 ± 0.03 | 1.1 ± 0.027
ACCGG | 0.955 ± 0.0037 | 1.95 ± 0.021 | 1.94 ± 0.076 | 1.05 ± 0.12
ACCGU | 0.885 ± 0.043 | 1.952 ± 0.0024 | 1.83 ± 0.039 | 0.856 ± 0.08
ACCGA | 0.6309 ± 0.0029 | 2.006 ± 0.015 | 1.77 ± 0.059 | 0.7685 ± 0.0034
ACACG | 1.12 ± 0.1 | 1.93 ± 0.024 | 1.8 ± 0.026 | 1.2 ± 0.07
ACACU | 0.829 ± 0.042 | 2.04 ± 0.094 | 1.85 ± 0.14 | 0.802 ± 0.071
ACACC | 0.952 ± 0.087 | 1.99 ± 0.12 | 2 ± 0.022 | 1.11 ± 0.06
ACACA | 0.454 ± 0.049 | 1.94 ± 0.051 | 1.77 ± 0.036 | 0.653 ± 0.055

Variant | FACS-Seq fitted mean (log10) (theophylline [1]) | normalized RNA/DNA level with ligand (log10) (theophylline [2]) | normalized RNA/DNA level without ligand (log10) (theophylline [3]) | FACS-Seq fitted mean (log10) (theophylline [4])
GCACU | 1.01 ± 0.018 | 1.966 ± 0.019 | 1.86 ± 0.022 | 1 ± 0.083
UAUUC | 0.679 ± 0.022 | 1.99 ± 0.089 | 1.94 ± 0.11 | 0.6994 ± 0.0049
UAUUU | 0.892 ± 0.098 | 1.995 ± 0.0037 | 1.94 ± 0.032 | 0.906 ± 0.048
UAUUG | 0.752 ± 0.025 | 2.07 ± 0.029 | 1.921 ± 0.017 | 0.768 ± 0.032
CCGCA | 0.678 ± 0.047 | 2.08 ± 0.025 | 1.83 ± 0.043 | 0.764 ± 0.0084
UCAUU | 0.822 ± 0.046 | 2.03 ± 0.045 | 1.815 ± 0.0057 | 0.906 ± 0.071
UCAUG | 0.358 ± 0.073 | 1.9 ± 0.12 | 1.89 ± 0.091 | 0.349 ± 0.033
CAUGU | 0.628 ± 0.042 | 1.98 ± 0.033 | 1.96 ± 0.052 | 0.704 ± 0.062
CAUGC | 0.705 ± 0.09 | 2.03 ± 0.085 | 1.98 ± 0.071 | 0.633 ± 0.01
CAUGA | 0.56151 ± 0.00013 | 2.03 ± 0.064 | 1.69 ± 0.1 | 0.619 ± 0.12
GCCAU | 0.669 ± 0.019 | 1.99 ± 0.077 | 1.88 ± 0.12 | 0.779 ± 0.05
ACCUA | 1.18 ± 0.18 | 1.94 ± 0.021 | 1.88 ± 0.16 | 1.136 ± 0.0083
ACCUU | 1.31 ± 0.14 | 2.04 ± 0.038 | 1.95 ± 0.047 | 1.27 ± 0.14
ACCUC | 0.785 ± 0.011 | 2.04 ± 0.034 | 1.98 ± 0.042 | 0.737 ± 0.044
ACCUG | 1.02 ± 0.063 | 2.01 ± 0.025 | 1.89 ± 0.043 | 0.898 ± 0.044
ACGAC | 1.26 ± 0.14 | 1.981 ± 0.0072 | 1.834 ± 0.018 | 1.19 ± 0.2
ACGAU | 0.425 ± 0.067 | 2.06 ± 0.059 | 1.69 ± 0.15 | 0.552 ± 0.049
ACGAG | 0.428 ± 0.049 | 2.05 ± 0.026 | 1.85 ± 0.073 | 0.448 ± 0.017
ACGAA | 0.287 ± 0.046 | 1.97 ± 0.098 | 1.51 ± 0.045 | 0.661 ± 0.025
GCAAC | 0.716 ± 0.09 | 1.93 ± 0.066 | 1.826 ± 0.0042 | 0.739 ± 0.094
GCAAU | 1.11 ± 0.06 | 1.96 ± 0.017 | 1.78 ± 0.027 | 1.06 ± 0.046
GCAAG | 0.716 ± 0.087 | 1.97 ± 0.14 | 1.66 ± 0.062 | 0.9 ± 0.035
UCAGA | 0.377 ± 0.081 | 1.96 ± 0.099 | 1.55 ± 0.13 | 0.6274 ± 0.0049
UCAGU | 0.741 ± 0.036 | 2.011 ± 0.018 | 1.875 ± 0.018 | 0.752 ± 0.097

Variant | FACS-Seq fitted mean (log10) (theophylline [1]) | normalized RNA/DNA level with ligand (log10) (theophylline [2]) | normalized RNA/DNA level without ligand (log10) (theophylline [3]) | FACS-Seq fitted mean (log10) (theophylline [4])
CCCCA | 0.614 ± 0.038 | 2.043 ± 0.0071 | 1.9 ± 0.11 | 0.52 ± 0.035
CCCCU | 0.771 ± 0.094 | 2 ± 0.042 | 1.951 ± 0.01 | 0.807 ± 0.053
CCCCC | 0.942 ± 0.16 | 2.0303 ± 0.00068 | 1.97 ± 0.032 | 0.862 ± 0.091
CCCGU | 0.812 ± 0.08 | 1.91 ± 0.23 | 1.894 ± 0.014 | 0.82 ± 0.087
CCCGA | 0.977 ± 0.19 | 1.956 ± 0.018 | 1.93 ± 0.077 | 0.827 ± 0.058
CCCGC | 1.3 ± 0.15 | 2.02 ± 0.021 | 2.088 ± 0.019 | 1.05 ± 0.028
GAUCU | 0.704 ± 0.15 | 1.98 ± 0.055 | 1.85 ± 0.03 | 0.81 ± 0.17
GAUCG | 1.12 ± 0.081 | 1.9 ± 0.031 | 1.78 ± 0.05 | 1.17 ± 0.094
UCCUU | 0.983 ± 0.13 | 2.011 ± 0.0076 | 1.94 ± 0.053 | 1.01 ± 0.082
UCCUC | 0.414 ± 0.042 | 2.03 ± 0.022 | 2.022 ± 0.015 | 0.566 ± 0.064
UCCUG | 0.994 ± 0.063 | 2.02 ± 0.1 | 1.99 ± 0.037 | 0.905 ± 0.0097
UCCUA | 0.918 ± 0.078 | 2 ± 0.13 | 2.007 ± 0.0046 | 0.92 ± 0.058
CAUUU | 0.805 ± 0.079 | 2.1059 ± 0.00056 | 1.74 ± 0.12 | 0.945 ± 0.13
CAUUA | 0.275 ± 0.06 | 1.851 ± 0.011 | 1.22 ± 0.14 | 0.761 ± 0.12
GCGAU | 0.428 ± 0.072 | 1.96 ± 0.025 | 1.7 ± 0.18 | 0.549 ± 0.1
UCGAC | 0.96 ± 0.048 | 1.9 ± 0.12 | 1.78 ± 0.059 | 0.965 ± 0.022
UCGAU | 0.605 ± 0.16 | 2.087 ± 0.0041 | 1.78 ± 0.12 | 0.815 ± 0.057
UCGAA | 0.342 ± 0.019 | 1.97 ± 0.055 | 1.48 ± 0.066 | 0.951 ± 0.086
GCAGA | 0.899 ± 0.2 | 2.04 ± 0.03 | 1.66 ± 0.083 | 0.875 ± 0.14
GCAGU | -0.266 ± 0.054 | 1.97 ± 0.12 | 1.774 ± 0.0085 | -0.0491 ± 0.075
ACCAG | 0.9579 ± 0.0021 | 1.93 ± 0.028 | 1.83 ± 0.059 | 1.02 ± 0.047
ACCAU | 0.574 ± 0.037 | 1.993 ± 0.011 | 1.86 ± 0.02 | 0.605 ± 0.068
ACCAA | 0.759 ± 0.043 | 2.02 ± 0.082 | 1.74 ± 0.069 | 0.832 ± 0.016
ACCAC | 1.02 ± 0.038 | 2 ± 0.055 | 2.006 ± 0.014 | 0.984 ± 0.066
